T1: GroES (E. coli, UniProt P0A6F9 1-97)
T1 sequence: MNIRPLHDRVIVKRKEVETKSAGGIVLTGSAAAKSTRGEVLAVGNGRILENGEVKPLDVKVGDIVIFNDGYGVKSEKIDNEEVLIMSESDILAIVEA

T2: GroES L27A mutant (E. coli, UniProt P0A6F9 1-97, L27A)
T2 sequence: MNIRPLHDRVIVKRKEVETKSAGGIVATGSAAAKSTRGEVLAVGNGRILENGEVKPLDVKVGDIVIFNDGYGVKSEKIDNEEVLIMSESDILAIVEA


Tests used:
[1] = target: T1, GroES; experiment: cell-based or functional assay
[2] = target: T2, GroES L27A mutant; experiment: cell-based or functional assay
[3] = target: mHsp10 L33A mutant (human, UniProt P61604 1-102, L33A); experiment: cell-based or functional assay
Chain of mHsp10 L33A mutant (P61604 whole entry L33A): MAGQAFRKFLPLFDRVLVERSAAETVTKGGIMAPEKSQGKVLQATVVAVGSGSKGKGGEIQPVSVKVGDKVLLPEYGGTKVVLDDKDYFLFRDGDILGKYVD

[4] = target: T1, GroES; experiment: SPR; ProteOn XPR36; GroES or mHsp10 immobilised by amine coupling on a GLC chip; six concentrations of each mHsp60 variant injected; 20 mM Na-HEPES pH 7.5, 100 mM KCl, 10 mM MgCl2, 0.005% Tween, 2 mM ATP; apparent constants from equilibrium analysis; settings: both partners purified
[5] = target: mitochondrial Hsp10, hexa-histidine-tagged (human, UniProt P61604 1-102); experiment: cell-based or functional assay
Chain of mitochondrial Hsp10, hexa-histidine-tagged (P61604 whole entry): as the sequence (P61604 whole entry L33A) above, with A33L counted along it

inhibition of the chaperonin's steady-state ATPase activity by co-chaperonin (2:1 co-chaperonin:chaperonin) [1] | inhibition of the chaperonin's steady-state ATPase activity by co-chaperonin (2:1 co-chaperonin:chaperonin) [2] | inhibition of the chaperonin's steady-state ATPase activity by co-chaperonin (2:1 co-chaperonin:chaperonin) [3] | KA ratio (apparent KA relative to that of mHsp60 and mHsp10) [4] | inhibition of the chaperonin's steady-state ATPase activity by co-chaperonin (2:1 co-chaperonin:chaperonin) [5] | Binder
0% | 0% | 0% |  |  | human mitochondrial Hsp60, wild type (natural protein, UniProt P10809 27-573, looked up) AKDVKFGADARALMLQGVDLLADAVAVTMGPKGRTVIIEQSWGSPKVTKDGVTVAKSIDLKDKYKNIGAKLVQDVANNTNEEAGDGTTTATVLARSIAKEGFEKISKGANPVEIRRGVMLAVDAVIAELKKQSKPVTTPEEIAQVATISANGDKEIGNIISDAMKKVGRKGVITVKDGKTLNDELEIIEGMKFDRGYISPYFINTSKGQKCEFQDAYVLLSEKKISSIQSIVPALEIANAHRKPLVIIAEDVDGEALSTLVLNRLKVGLQVVAVKAPGFGDNRKNQLKDMAIATGGAVFGEEGLTLNLEDVQPHDLGKVGEVIVTKDDAMLLKGKGDKAQIEKRIQEIIEQLDVTTSEYEKEKLNERLAKLSDGVAVLKVGGTSDVEVNEKKDRVTDALNATRAAVEEGIVLGGGCALLRCIPALDSLTPANEDQKIGIEIIKRTLKIPAMTIAKNAGVEGSLIVEKIMQSSSEVGYDAMAGDFVNMVEKGIIDPTKVVRTALLDAAGVASLLTTAEVVVTEIPKEEKDPGMGAMGGMGGGMGGGMF
30% | 0% | 26% | 1.43 ratio |  | human mitochondrial Hsp60 E321K mutant (natural protein, UniProt P10809 27-573, looked up, human mitochondrial Hsp60 with E321K, isolated from an error-prone PCR library; also called E321K mHsp60; source: expressed in bacteria, purified as oligomers) AKDVKFGADARALMLQGVDLLADAVAVTMGPKGRTVIIEQSWGSPKVTKDGVTVAKSIDLKDKYKNIGAKLVQDVANNTNEEAGDGTTTATVLARSIAKEGFEKISKGANPVEIRRGVMLAVDAVIAELKKQSKPVTTPEEIAQVATISANGDKEIGNIISDAMKKVGRKGVITVKDGKTLNDELEIIEGMKFDRGYISPYFINTSKGQKCEFQDAYVLLSEKKISSIQSIVPALEIANAHRKPLVIIAEDVDGEALSTLVLNRLKVGLQVVAVKAPGFGDNRKNQLKDMAIATGGAVFGEEGLTLNLEDVQPHDLGKVGKVIVTKDDAMLLKGKGDKAQIEKRIQEIIEQLDVTTSEYEKEKLNERLAKLSDGVAVLKVGGTSDVEVNEKKDRVTDALNATRAAVEEGIVLGGGCALLRCIPALDSLTPANEDQKIGIEIIKRTLKIPAMTIAKNAGVEGSLIVEKIMQSSSEVGYDAMAGDFVNMVEKGIIDPTKVVRTALLDAAGVASLLTTAEVVVTEIPKEEKDPGMGAMGGMGGGMGGGMF
47% | 0% | 40% |  | 48% | human mitochondrial Hsp60 R264K/E358K double mutant (natural protein, UniProt P10809 27-573, looked up, human mitochondrial Hsp60 with R264K and E358K, isolated from an error-prone PCR library; also called R264K/E358K mHsp60; source: expressed in bacteria, purified as oligomers) AKDVKFGADARALMLQGVDLLADAVAVTMGPKGRTVIIEQSWGSPKVTKDGVTVAKSIDLKDKYKNIGAKLVQDVANNTNEEAGDGTTTATVLARSIAKEGFEKISKGANPVEIRRGVMLAVDAVIAELKKQSKPVTTPEEIAQVATISANGDKEIGNIISDAMKKVGRKGVITVKDGKTLNDELEIIEGMKFDRGYISPYFINTSKGQKCEFQDAYVLLSEKKISSIQSIVPALEIANAHRKPLVIIAEDVDGEALSTLVLNKLKVGLQVVAVKAPGFGDNRKNQLKDMAIATGGAVFGEEGLTLNLEDVQPHDLGKVGEVIVTKDDAMLLKGKGDKAQIEKRIQEIIEQLDVTTSKYEKEKLNERLAKLSDGVAVLKVGGTSDVEVNEKKDRVTDALNATRAAVEEGIVLGGGCALLRCIPALDSLTPANEDQKIGIEIIKRTLKIPAMTIAKNAGVEGSLIVEKIMQSSSEVGYDAMAGDFVNMVEKGIIDPTKVVRTALLDAAGVASLLTTAEVVVTEIPKEEKDPGMGAMGGMGGGMGGGMF

— paper PMC3514286 (PLoS ONE, 2012)
